Source: the Immune Epitope Database (IEDB)

Columns and labels:
Experiment in all cases: IEDB peptide-MHC binding, purified MHC/competitive/radioactivity; filed as Kd, often an IC50 or EC50 that approximates it; ≥ and ≤ were set here for values at or beyond the usual limits of such assays
HLA-A*31:01 = target: HLA-A*31:01
HLA-A*68:01 = target: HLA-A*68:01
HLA-A*33:01 = target: HLA-A*33:01
HLA-A*03:01 = target: HLA-A*03:01
HLA-A*11:01 = target: HLA-A*11:01
[1] = source organism: Dengue virus 2 Jamaica/1409/1983
[2] = source organism: Vaccinia virus WR
[3] = source organism: Dengue virus 1 Brazil/97-11/1997
[4] = source organism: Lassa virus Josiah
[5] = source organism: Lymphocytic choriomeningitis virus (strain Armstrong)
[6] = source organism: SARS coronavirus Tor2
[7] = source organism: Mammarenavirus guanaritoense
[8] = source organism: Mammarenavirus whitewaterense
[9] = source organism: Dengue virus 4 Dominica/814669/1981
[10] = source organism: Dengue virus 3 Martinique/1243/1999
[11] = source organism: Dengue virus 4 Philippines/H241/1956

## KAINVLRGFR
HLA-A*31:01; [1]
  Kd: 0.824 nM

## YSKLTKDRK
HLA-A*68:01; [2]
  Kd: 52.3 nM
HLA-A*33:01; [2]
  Kd: ≥ 23900 nM
HLA-A*03:01; [2]
  Kd: ≥ 78000 nM
HLA-A*31:01; [2]
  Kd: 4320 nM
HLA-A*11:01; [2]
  Kd: 4850 nM

## PVLKAMHDKK
HLA-A*68:01; [2]
  Kd: ≥ 70200 nM
HLA-A*33:01; [2]
  Kd: ≥ 70000 nM
HLA-A*03:01; [2]
  Kd: 8510 nM
HLA-A*31:01; [2]
  Kd: ≥ 70000 nM
HLA-A*11:01; [2]
  Kd: ≥ 24800 nM

## FNMLKRARNR
HLA-A*33:01; [3]
  Kd: 421 nM

## CTGKFKIVK
HLA-A*11:01; [1]
  Kd: 98.3 nM

## DAHKKNLYDH
HLA-A*68:01; [4]
  Kd: ≥ 70100 nM
HLA-A*33:01; [4]
  Kd: ≥ 70000 nM
HLA-A*03:01; [4]
  Kd: ≥ 70000 nM
HLA-A*31:01; [4]
  Kd: 3430 nM
HLA-A*11:01; [4]
  Kd: ≥ 69700 nM

## ATIQRFSSLR
HLA-A*68:01; [2]
  Kd: 6.84 nM
HLA-A*33:01; [2]
  Kd: 244 nM
HLA-A*03:01; [2]
  Kd: 23.4 nM
HLA-A*31:01; [2]
  Kd: 0.626 nM
HLA-A*11:01; [2]
  Kd: 4.64 nM

## IVHSYLKNY
HLA-A*68:01; [2]
  Kd: ≥ 23800 nM
HLA-A*33:01; [2]
  Kd: ≥ 77700 nM
HLA-A*03:01; [2]
  Kd: ≥ 21600 nM
HLA-A*31:01; [2]
  Kd: ≥ 25500 nM
HLA-A*11:01; [2]
  Kd: 1230 nM

## DYMTSMKRFK
HLA-A*33:01; [3]
  Kd: 21.2 nM

## LVYFSTQQNK
HLA-A*68:01; [2]
  Kd: 4.03 nM
HLA-A*33:01; [2]
  Kd: ≥ 44600 nM
HLA-A*03:01; [2]
  Kd: 0.977 nM
HLA-A*31:01; [2]
  Kd: 5230 nM
HLA-A*11:01; [2]
  Kd: 1.56 nM

## TLISLNSMY
HLA-A*68:01; [2]
  Kd: 46.8 nM
HLA-A*33:01; [2]
  Kd: 15000 nM
HLA-A*03:01; [2]
  Kd: 155 nM
HLA-A*31:01; [2]
  Kd: 8060 nM
HLA-A*11:01; [2]
  Kd: 282 nM

## TYLGPLSCK
HLA-A*68:01; [5]
  Kd: 375 nM
HLA-A*33:01; [5]
  Kd: 154 nM
HLA-A*03:01; [5]
  Kd: 165 nM
HLA-A*31:01; [5]
  Kd: 1690 nM
HLA-A*11:01; [5]
  Kd: 21.3 nM

## SVKGLTPSK
HLA-A*68:01; [6]
  Kd: 180 nM
HLA-A*33:01; [6]
  Kd: 9270 nM
HLA-A*03:01; [6]
  Kd: 7.56 nM
HLA-A*31:01; [6]
  Kd: 171 nM
HLA-A*11:01; [6]
  Kd: 13.2 nM

## SMLNIMNRRK
HLA-A*03:01; [3]
  Kd: 49.6 nM

## NTSVDLYAR
HLA-A*11:01; [7]
  Kd: 2190 nM

## LIKFISDNK
HLA-A*68:01; [2]
  Kd: 1.1 nM
HLA-A*33:01; [2]
  Kd: 624 nM
HLA-A*03:01; [2]
  Kd: 151 nM
HLA-A*31:01; [2]
  Kd: 120 nM
HLA-A*11:01; [2]
  Kd: 222 nM

## TSVDIETAIR
HLA-A*68:01; [2]
  Kd: 1.35 nM
HLA-A*33:01; [2]
  Kd: 1440 nM
HLA-A*03:01; [2]
  Kd: 2980 nM
HLA-A*31:01; [2]
  Kd: 922 nM
HLA-A*11:01; [2]
  Kd: 581 nM

## GIADIRDKY
HLA-A*68:01; [2]
  Kd: 2340 nM
HLA-A*33:01; [2]
  Kd: ≥ 77700 nM
HLA-A*03:01; [2]
  Kd: ≥ 78000 nM
HLA-A*31:01; [2]
  Kd: ≥ 77900 nM
HLA-A*11:01; [2]
  Kd: 8970 nM

## YMPSMKRFR
HLA-A*33:01; [1]
  Kd: 7.57 nM
HLA-A*31:01; [1]
  Kd: 100 nM

## TLYVKALTK
HLA-A*68:01; [2]
  Kd: 185 nM
HLA-A*33:01; [2]
  Kd: 15500 nM
HLA-A*03:01; [2]
  Kd: 1.93 nM
HLA-A*31:01; [2]
  Kd: 2920 nM
HLA-A*11:01; [2]
  Kd: 23.9 nM

## AQPLPQRQKK
HLA-A*68:01; [6]
  Kd: ≥ 70200 nM
HLA-A*33:01; [6]
  Kd: ≥ 27500 nM
HLA-A*03:01; [6]
  Kd: ≥ 33400 nM
HLA-A*31:01; [6]
  Kd: ≥ 32700 nM
HLA-A*11:01; [6]
  Kd: 1230 nM

## STYGWNLVR
HLA-A*68:01; [1]
  Kd: 8.81 nM
HLA-A*33:01; [1]
  Kd: 2.91 nM
HLA-A*03:01; [1]
  Kd: 63.5 nM
HLA-A*31:01; [1]
  Kd: 3.26 nM

## AAYYFMKFRR
HLA-A*68:01; [6]
  Kd: 79.2 nM
HLA-A*33:01; [6]
  Kd: 277 nM
HLA-A*03:01; [6]
  Kd: 3050 nM
HLA-A*31:01; [6]
  Kd: 41 nM
HLA-A*11:01; [6]
  Kd: 132 nM

## TAVAKCNVNH
HLA-A*68:01; [5]
  Kd: ≥ 65300 nM
HLA-A*33:01; [5]
  Kd: ≥ 66800 nM
HLA-A*03:01; [5]
  Kd: ≥ 70000 nM
HLA-A*31:01; [5]
  Kd: ≥ 70000 nM
HLA-A*11:01; [5]
  Kd: ≥ 69700 nM

## AALDGTFQR
HLA-A*68:01; [2]
  Kd: 1.95 nM
HLA-A*33:01; [2]
  Kd: 177 nM
HLA-A*03:01; [2]
  Kd: 6210 nM
HLA-A*31:01; [2]
  Kd: 36.4 nM
HLA-A*11:01; [2]
  Kd: 2.62 nM

## SRIFEDLVWK
HLA-A*68:01; [8]
  Kd: 572 nM
HLA-A*33:01; [8]
  Kd: ≥ 59100 nM
HLA-A*03:01; [8]
  Kd: 872 nM
HLA-A*31:01; [8]
  Kd: 8380 nM
HLA-A*11:01; [8]
  Kd: 620 nM

## MLNILNRRRR
HLA-A*31:01; [1]
  Kd: 14.1 nM

## ILSDIISAEK
HLA-A*68:01; [2]
  Kd: 4.29 nM
HLA-A*33:01; [2]
  Kd: 1380 nM
HLA-A*03:01; [2]
  Kd: 0.501 nM
HLA-A*31:01; [2]
  Kd: 14.5 nM
HLA-A*11:01; [2]
  Kd: 0.829 nM

## VMAFIAFLR
HLA-A*68:01; [3]
  Kd: 4.51 nM
HLA-A*33:01; [3]
  Kd: 4.68 nM
HLA-A*03:01; [3]
  Kd: 38.5 nM
HLA-A*31:01; [3]
  Kd: 1.33 nM
HLA-A*11:01; [3]
  Kd: 171 nM

## TVVIGTSKFY
HLA-A*68:01; [6]
  Kd: 1500 nM
HLA-A*33:01; [6]
  Kd: 1240 nM
HLA-A*03:01; [6]
  Kd: 1100 nM
HLA-A*31:01; [6]
  Kd: 1860 nM
HLA-A*11:01; [6]
  Kd: 809 nM

## SYSMCTGKFK
HLA-A*33:01; [1]
  Kd: 841 nM

## LMRFITAETH
HLA-A*68:01; [5]
  Kd: 3540 nM
HLA-A*33:01; [5]
  Kd: 5450 nM
HLA-A*31:01; [5]
  Kd: 411 nM

## VFLRKLTSR
HLA-A*33:01; [9]
  Kd: 178 nM
HLA-A*31:01; [9]
  Kd: 66.8 nM

## MWSLMYFHRR
HLA-A*33:01; [10]
  Kd: 31.2 nM
HLA-A*31:01; [10]
  Kd: 11.5 nM

## EASIQPITR
HLA-A*68:01; source organism: Homo sapiens
  Kd: 50 nM

## MVLAFITFLR
HLA-A*68:01; [11]
  Kd: 17.4 nM
HLA-A*33:01; [11]
  Kd: 22.3 nM
HLA-A*31:01; [11]
  Kd: 4.34 nM
HLA-A*11:01; [11]
  Kd: 971 nM

## ALLALNDMGK
HLA-A*03:01; [10]
  Kd: 28.4 nM
HLA-A*11:01; [10]
  Kd: 196 nM

## ISSIIRSLPK
HLA-A*11:01; [8]
  Kd: 23 nM

## VSLLGSALLK
HLA-A*03:01; [11]
  Kd: 24.9 nM
HLA-A*11:01; [11]
  Kd: 45.3 nM

## ASLPTYLSSR
HLA-A*31:01; [11]
  Kd: 7.6 nM

## GVCGIRSATR
HLA-A*68:01; [3]
  Kd: 1880 nM
HLA-A*31:01; [3]
  Kd: ≥ 70000 nM

## YVSAIAQTEK
HLA-A*68:01; [1]
  Kd: 24 nM
HLA-A*11:01; [1]
  Kd: 311 nM

## LLSGQGPMK
HLA-A*03:01; [3]
  Kd: 40.2 nM

## EAKQPATLR
HLA-A*68:01; [1]
  Kd: 74.8 nM
HLA-A*33:01; [1]
  Kd: 10.1 nM

## VVVGAGGVGK
HLA-A*03:01; source organism: Homo sapiens
  Kd: 82 nM
HLA-A*11:01; source organism: Homo sapiens
  Kd: 12.4 nM

## DIQQWEPSR
HLA-A*33:01; [1]
  Kd: 113 nM

## MWSLMYFHR
HLA-A*33:01; [10]
  Kd: 1.36 nM
HLA-A*31:01; [10]
  Kd: 28.9 nM

## LTWLGLNSR
HLA-A*33:01; [3]
  Kd: 43.8 nM
HLA-A*31:01; [3]
  Kd: ≥ 63300 nM

## DLPVWLAYR
HLA-A*33:01; [1]
  Kd: 4 nM

## RLRMDKLQLK
HLA-A*03:01; [1]
  Kd: 7.91 nM

## TSGSPIIDK
HLA-A*11:01; source organism: Dengue virus 2 16681-PDK53
  Kd: 69.4 nM

## MLSIINKRK
HLA-A*03:01; [10]
  Kd: 121 nM

## DWTDGSRGYR
HLA-A*33:01; [7]
  Kd: 1170 nM
HLA-A*31:01; [7]
  Kd: 918 nM

## HVQTKPGLFK
HLA-A*03:01; [11]
  Kd: 8.44 nM
HLA-A*11:01; [11]
  Kd: 389 nM
